Experimental data published in IntAct's records for PubMed 24097060.

B1: DNA topoisomerase 4 subunit A (Escherichia coli (strain K12)), P0AFI2 (parent)
chain: MSDMAERLALHEFTENAYLNYSMYVIMDRALPFIGDGLKPVQRRIVYAMSELGLNASAKFKKSARTVGDVLGKYHPHGDSACYEAMVLMAQPFSYRYPLVDGQGNWGAPDDPKSFAAMRYTESRLSKYSELLLSELGQGTADWVPNFDGTLQEPKMLPARLPNILLNGTTGIAVGMATDIPPHNLREVAQAAIALIDQPKTTLDQLLDIVQGPDYPTEAEIITSRAEIRKIYENGRGSVRMRAVWKKEDGAVVISALPHQVSGARVLEQIAAQMRNKKLPMVDDLRDESDHENPTRLVIVPRSNRVDMDQVMNHLFATTDLEKSYRINLNMIGLDGRPAVKNLLEILSEWLVFRRDTVRRRLNYRLEKVLKRLHILEGLLVAFLNIDEVIEIIRNEDEPKPALMSRFGLTETQAEAILELKLRHLAKLEEMKIRGEQSELEKERDQLQGILASERKMNNLLKKELQADAQAYGDDRRSPLQEREEAKAMSEHDMLPSEPVTIVLSQMGWVRSAKGHDIDAPGLNYKAGDSFKAAVKGKSNQPVVFVDSTGRSYAIDPITLPSARGQGEPLTGKLTLPPGATVDHMLMESDDQKLLMASDAGYGFVCTFNDLVARNRAGKALITLPENAHVMPPVVIEDASDMLLAITQAGRMLMFPVSDLPQLSKGKGNKIINIPSAEAARGEDGLAQLYVLPPQSTLTIHVGKRKIKLRPEELQKVTGERGRRGTLMRGLQRIDRVEIDSPRRASSGDSEE
partner: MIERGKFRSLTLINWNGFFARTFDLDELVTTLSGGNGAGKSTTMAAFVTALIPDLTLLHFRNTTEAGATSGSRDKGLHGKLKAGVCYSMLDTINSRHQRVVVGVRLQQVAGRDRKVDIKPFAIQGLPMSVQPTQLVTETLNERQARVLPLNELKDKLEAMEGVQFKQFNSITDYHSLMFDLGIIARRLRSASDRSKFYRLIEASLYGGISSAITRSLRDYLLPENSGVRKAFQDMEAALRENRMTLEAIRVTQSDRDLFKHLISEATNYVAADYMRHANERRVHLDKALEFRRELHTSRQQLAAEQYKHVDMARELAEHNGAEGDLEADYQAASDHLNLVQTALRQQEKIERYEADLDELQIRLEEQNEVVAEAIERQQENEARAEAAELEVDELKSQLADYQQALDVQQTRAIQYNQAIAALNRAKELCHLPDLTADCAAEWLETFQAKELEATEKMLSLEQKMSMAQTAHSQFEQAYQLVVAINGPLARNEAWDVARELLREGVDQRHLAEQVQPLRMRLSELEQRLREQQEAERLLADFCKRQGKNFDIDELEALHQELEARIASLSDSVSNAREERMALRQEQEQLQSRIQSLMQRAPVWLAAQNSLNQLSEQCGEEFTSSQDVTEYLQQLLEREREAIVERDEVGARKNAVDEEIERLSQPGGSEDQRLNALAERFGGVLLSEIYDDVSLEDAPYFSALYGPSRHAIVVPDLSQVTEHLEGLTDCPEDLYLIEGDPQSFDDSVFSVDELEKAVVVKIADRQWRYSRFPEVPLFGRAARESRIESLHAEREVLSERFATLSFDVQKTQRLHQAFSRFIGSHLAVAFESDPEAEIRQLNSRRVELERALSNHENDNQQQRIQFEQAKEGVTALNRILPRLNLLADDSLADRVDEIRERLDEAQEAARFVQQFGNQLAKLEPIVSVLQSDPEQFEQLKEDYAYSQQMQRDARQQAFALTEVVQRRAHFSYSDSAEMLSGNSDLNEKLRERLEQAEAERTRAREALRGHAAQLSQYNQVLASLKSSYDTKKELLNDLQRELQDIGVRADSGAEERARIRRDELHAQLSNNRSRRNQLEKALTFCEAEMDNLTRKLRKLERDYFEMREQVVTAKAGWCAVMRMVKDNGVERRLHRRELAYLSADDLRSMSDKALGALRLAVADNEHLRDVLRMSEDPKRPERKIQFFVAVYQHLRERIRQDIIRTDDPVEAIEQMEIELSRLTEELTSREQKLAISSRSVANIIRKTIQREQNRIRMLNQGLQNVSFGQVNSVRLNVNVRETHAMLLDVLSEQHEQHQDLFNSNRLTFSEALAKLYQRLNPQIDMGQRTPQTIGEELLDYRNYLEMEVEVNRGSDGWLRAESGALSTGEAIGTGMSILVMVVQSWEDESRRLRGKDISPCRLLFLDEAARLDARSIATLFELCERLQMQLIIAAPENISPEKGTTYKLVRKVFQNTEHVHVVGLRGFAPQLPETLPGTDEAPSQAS
B2: Chromosome partition protein MukB (Escherichia coli (strain K12)), P22523 (parent)
chain: B1 partner
partner: B1 chain

Variants of: B1
Conditions: with mukb_ecoli mukB

effect of a mutation on the interaction	Variant
disrupting interaction	R705D;R729D

Variants of: B2
Conditions: with parc_ecoli parC

effect of a mutation on the interaction	Variant
disrupting interaction	D692F;D746R;E753R

Variants of: B2
Conditions: with parc_ecoli parC
Remark: another data set of the same source

effect of a mutation on the interaction	Variant
decreasing interaction	D692F
